{"source": "the Human Domainome abundance scans (Beltran et al. 2025)", "note": "± gives the uncertainty stated by the source.", "data": [{"assay": "abundance fitness (aPCA) (normalised: wild type 0, dead -1); higher = more abundant; growth selection in yeast, the domain comes from the species named", "details": "Homo sapiens", "values": [{"substance": "BAG family molecular chaperone regulator 3 G17I, O95817", "abundance fitness": "0.73 ± 0.092"}, {"substance": "BAG family molecular chaperone regulator 3 G17K, O95817", "abundance fitness": "0.564 ± 0.093"}, {"substance": "BAG family molecular chaperone regulator 3 G17L, O95817", "abundance fitness": "0.282 ± 0.087"}, {"substance": "BAG family molecular chaperone regulator 3 G17M, O95817", "abundance fitness": "0.25 ± 0.21"}, {"substance": "BAG family molecular chaperone regulator 3 G17N, O95817", "abundance fitness": "0.913 ± 0.13"}, {"substance": "BAG family molecular chaperone regulator 3 G17P, O95817", "abundance fitness": "1.15 ± 0.12"}, {"substance": "BAG family molecular chaperone regulator 3 G17Q, O95817", "abundance fitness": "0.968 ± 0.098"}, {"substance": "BAG family molecular chaperone regulator 3 G17R, O95817", "abundance fitness": "0.791 ± 0.06"}, {"substance": "BAG family molecular chaperone regulator 3 G17S, O95817", "abundance fitness": "0.82 ± 0.073"}, {"substance": "BAG family molecular chaperone regulator 3 G17T, O95817", "abundance fitness": "0.943 ± 0.083"}, {"substance": "BAG family molecular chaperone regulator 3 G17W, O95817", "abundance fitness": "0.329 ± 0.083"}, {"substance": "BAG family molecular chaperone regulator 3 G17Y, O95817", "abundance fitness": "0.213 ± 0.22"}, {"substance": "BAG family molecular chaperone regulator 3 G25A, O95817", "abundance fitness": "-0.712 ± 0.17"}, {"substance": "BAG family molecular chaperone regulator 3 G25C, O95817", "abundance fitness": "-0.74 ± 0.17"}, {"substance": "BAG family molecular chaperone regulator 3 G25D, O95817", "abundance fitness": "-0.548 ± 0.23"}, {"substance": "BAG family molecular chaperone regulator 3 G25H, O95817", "abundance fitness": "-0.125 ± 0.065"}, {"substance": "BAG family molecular chaperone regulator 3 G25K, O95817", "abundance fitness": "-0.492 ± 0.23"}, {"substance": "BAG family molecular chaperone regulator 3 G25L, O95817", "abundance fitness": "-0.784 ± 0.19"}, {"substance": "BAG family molecular chaperone regulator 3 G25M, O95817", "abundance fitness": "-0.652 ± 0.075"}, {"substance": "BAG family molecular chaperone regulator 3 G25N, O95817", "abundance fitness": "0.081 ± 0.21"}, {"substance": "BAG family molecular chaperone regulator 3 G25Q, O95817", "abundance fitness": "-1.03 ± 0.27"}, {"substance": "BAG family molecular chaperone regulator 3 G25R, O95817", "abundance fitness": "-0.432 ± 0.14"}, {"substance": "BAG family molecular chaperone regulator 3 G25S, O95817", "abundance fitness": "-0.726 ± 0.19"}, {"substance": "BAG family molecular chaperone regulator 3 G25T, O95817", "abundance fitness": "-0.667 ± 0.22"}, {"substance": "BAG family molecular chaperone regulator 3 G25V, O95817", "abundance fitness": "-1.23 ± 0.33"}, {"substance": "BAG family molecular chaperone regulator 3 G25W, O95817", "abundance fitness": "-0.875 ± 0.34"}, {"substance": "BAG family molecular chaperone regulator 3 G35A, O95817", "abundance fitness": "0.335 ± 0.063"}, {"substance": "BAG family molecular chaperone regulator 3 G35C, O95817", "abundance fitness": "0.146 ± 0.17"}, {"substance": "BAG family molecular chaperone regulator 3 G35D, O95817", "abundance fitness": "0.202 ± 0.13"}, {"substance": "BAG family molecular chaperone regulator 3 G35F, O95817", "abundance fitness": "-0.552 ± 0.11"}, {"substance": "BAG family molecular chaperone regulator 3 G35H, O95817", "abundance fitness": "0.552 ± 0.28"}, {"substance": "BAG family molecular chaperone regulator 3 G35K, O95817", "abundance fitness": "0.766 ± 0.078"}, {"substance": "BAG family molecular chaperone regulator 3 G35L, O95817", "abundance fitness": "-0.184 ± 0.14"}, {"substance": "BAG family molecular chaperone regulator 3 G35M, O95817", "abundance fitness": "-0.158 ± 0.16"}, {"substance": "BAG family molecular chaperone regulator 3 G35N, O95817", "abundance fitness": "1.26 ± 0.22"}, {"substance": "BAG family molecular chaperone regulator 3 G35P, O95817", "abundance fitness": "-0.237 ± 0.21"}, {"substance": "BAG family molecular chaperone regulator 3 G35Q, O95817", "abundance fitness": "0.41 ± 0.11"}, {"substance": "BAG family molecular chaperone regulator 3 G35R, O95817", "abundance fitness": "0.366 ± 0.078"}, {"substance": "BAG family molecular chaperone regulator 3 G35S, O95817", "abundance fitness": "0.442 ± 0.064"}, {"substance": "BAG family molecular chaperone regulator 3 G35T, O95817", "abundance fitness": "-0.006 ± 0.11"}, {"substance": "BAG family molecular chaperone regulator 3 G35V, O95817", "abundance fitness": "-0.589 ± 0.16"}, {"substance": "BAG family molecular chaperone regulator 3 G35W, O95817", "abundance fitness": "-0.726 ± 0.19"}, {"substance": "BAG family molecular chaperone regulator 3 G35Y, O95817", "abundance fitness": "-0.304 ± 0.24"}, {"substance": "BAG family molecular chaperone regulator 3 G58A, O95817", "abundance fitness": "-0.45 ± 0.15"}, {"substance": "BAG family molecular chaperone regulator 3 G58C, O95817", "abundance fitness": "-0.17 ± 0.25"}, {"substance": "BAG family molecular chaperone regulator 3 G58D, O95817", "abundance fitness": "0.238 ± 0.18"}, {"substance": "BAG family molecular chaperone regulator 3 G58E, O95817", "abundance fitness": "-0.045 ± 0.18"}, {"substance": "BAG family molecular chaperone regulator 3 G58F, O95817", "abundance fitness": "-0.382 ± 0.37"}, {"substance": "BAG family molecular chaperone regulator 3 G58H, O95817", "abundance fitness": "-0.263 ± 0.1"}, {"substance": "BAG family molecular chaperone regulator 3 G58I, O95817", "abundance fitness": "0.138 ± 0.28"}, {"substance": "BAG family molecular chaperone regulator 3 G58L, O95817", "abundance fitness": "-0.211 ± 0.2"}, {"substance": "BAG family molecular chaperone regulator 3 G58M, O95817", "abundance fitness": "0.512 ± 0.17"}, {"substance": "BAG family molecular chaperone regulator 3 G58N, O95817", "abundance fitness": "0.51 ± 0.35"}, {"substance": "BAG family molecular chaperone regulator 3 G58P, O95817", "abundance fitness": "-0.032 ± 0.29"}, {"substance": "BAG family molecular chaperone regulator 3 G58Q, O95817", "abundance fitness": "0.85 ± 0.19"}, {"substance": "BAG family molecular chaperone regulator 3 G58R, O95817", "abundance fitness": "-0.214 ± 0.08"}, {"substance": "BAG family molecular chaperone regulator 3 G58S, O95817", "abundance fitness": "-0.193 ± 0.11"}, {"substance": "BAG family molecular chaperone regulator 3 G58V, O95817", "abundance fitness": "-0.129 ± 0.064"}, {"substance": "BAG family molecular chaperone regulator 3 G58W, O95817", "abundance fitness": "-0.682 ± 0.29"}, {"substance": "BAG family molecular chaperone regulator 3 H42A, O95817", "abundance fitness": "-0.857 ± 0.15"}, {"substance": "BAG family molecular chaperone regulator 3 H42C, O95817", "abundance fitness": "-0.457 ± 0.33"}, {"substance": "BAG family molecular chaperone regulator 3 H42E, O95817", "abundance fitness": "-0.738 ± 0.33"}, {"substance": "BAG family molecular chaperone regulator 3 H42G, O95817", "abundance fitness": "-0.65 ± 0.09"}, {"substance": "BAG family molecular chaperone regulator 3 H42I, O95817", "abundance fitness": "-0.625 ± 0.29"}, {"substance": "BAG family molecular chaperone regulator 3 H42K, O95817", "abundance fitness": "-0.942 ± 0.42"}]}]}
